# Values of other authors, collected in publication PMC9304195.
# Target: UGGT (Homo sapiens) (UniProt Q9NYU2)
# Sequence (Q9NYU2 43-1555): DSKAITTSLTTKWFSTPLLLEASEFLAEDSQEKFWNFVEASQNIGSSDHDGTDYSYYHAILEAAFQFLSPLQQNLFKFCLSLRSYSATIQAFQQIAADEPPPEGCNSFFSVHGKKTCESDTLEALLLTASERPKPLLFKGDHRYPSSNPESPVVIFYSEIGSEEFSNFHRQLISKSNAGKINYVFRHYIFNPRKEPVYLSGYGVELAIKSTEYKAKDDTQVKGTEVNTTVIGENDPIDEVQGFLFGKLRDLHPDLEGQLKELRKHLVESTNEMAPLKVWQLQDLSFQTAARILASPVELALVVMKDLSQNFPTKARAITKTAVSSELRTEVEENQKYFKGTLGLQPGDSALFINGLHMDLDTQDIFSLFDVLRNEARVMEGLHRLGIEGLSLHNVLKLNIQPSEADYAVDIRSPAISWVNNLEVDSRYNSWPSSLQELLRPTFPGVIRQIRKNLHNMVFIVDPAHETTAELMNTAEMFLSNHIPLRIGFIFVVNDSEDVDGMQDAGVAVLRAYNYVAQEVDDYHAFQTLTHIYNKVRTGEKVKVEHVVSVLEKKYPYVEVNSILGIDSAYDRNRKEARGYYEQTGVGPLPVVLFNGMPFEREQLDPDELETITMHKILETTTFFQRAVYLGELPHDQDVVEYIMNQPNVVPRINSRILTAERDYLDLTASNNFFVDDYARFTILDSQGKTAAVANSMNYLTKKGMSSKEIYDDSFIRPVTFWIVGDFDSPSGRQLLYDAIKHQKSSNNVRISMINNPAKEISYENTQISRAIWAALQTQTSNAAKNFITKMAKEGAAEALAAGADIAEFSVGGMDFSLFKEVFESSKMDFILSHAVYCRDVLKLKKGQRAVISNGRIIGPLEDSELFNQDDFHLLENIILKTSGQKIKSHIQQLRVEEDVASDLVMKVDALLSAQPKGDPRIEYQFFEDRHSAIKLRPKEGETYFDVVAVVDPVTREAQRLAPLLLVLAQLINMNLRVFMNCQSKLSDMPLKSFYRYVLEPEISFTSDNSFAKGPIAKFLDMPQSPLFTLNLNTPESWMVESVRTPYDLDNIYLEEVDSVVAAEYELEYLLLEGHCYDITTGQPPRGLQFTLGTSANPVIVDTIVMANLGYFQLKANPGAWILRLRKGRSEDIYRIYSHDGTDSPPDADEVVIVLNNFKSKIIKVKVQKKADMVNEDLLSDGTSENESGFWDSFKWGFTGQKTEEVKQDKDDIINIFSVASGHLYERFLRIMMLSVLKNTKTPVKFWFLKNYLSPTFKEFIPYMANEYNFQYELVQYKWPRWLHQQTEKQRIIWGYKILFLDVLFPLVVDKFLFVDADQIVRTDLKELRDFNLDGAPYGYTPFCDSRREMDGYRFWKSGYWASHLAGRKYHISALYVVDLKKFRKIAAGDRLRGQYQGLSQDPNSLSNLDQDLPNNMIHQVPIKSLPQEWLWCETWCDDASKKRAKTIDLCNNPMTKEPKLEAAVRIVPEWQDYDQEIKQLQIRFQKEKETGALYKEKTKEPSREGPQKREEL
# Sequence of SELENOF (O60613 32-165): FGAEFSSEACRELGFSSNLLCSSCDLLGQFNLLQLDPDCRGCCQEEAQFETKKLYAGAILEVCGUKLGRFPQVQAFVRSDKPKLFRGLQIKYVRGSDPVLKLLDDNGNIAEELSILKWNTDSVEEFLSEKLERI
substance,measurement,value
SELENOF (from UniProt O60613),Kd,20 nM
